Experiments:
[1] = biological target: ptau 187-212 (pY197, pT205 by the sequence printed in Table 11) (human); assay: peptide ELISA, 2 ug/mL
[2] = biological target: ptau 187-212 (pS202, pT205 by the sequence printed in Table 22) (human); assay: Ala-scan peptide ELISA, 1 ug/mL

CBTAU-7.1 (antibody), sequence (VH): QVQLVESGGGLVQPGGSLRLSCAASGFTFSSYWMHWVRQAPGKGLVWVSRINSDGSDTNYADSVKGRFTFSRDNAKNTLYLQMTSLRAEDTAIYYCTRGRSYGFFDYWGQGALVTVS
CBTAU-7.1 (antibody), sequence (VL): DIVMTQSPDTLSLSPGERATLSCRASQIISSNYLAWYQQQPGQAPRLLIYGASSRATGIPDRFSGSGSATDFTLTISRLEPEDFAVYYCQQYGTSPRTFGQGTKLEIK

CBTAU-7.1 (antibody) was tested, and the OD450 [1] was 0.5 to 1 od and the OD450 [2] was > 1.5 od.

Reference: patent US20170210787A1
